Values quoted from earlier work, collected in PMC2925223.

Test system: His64
Experiment: not stated
Details: His64 in the inward orientation in the crystal structures

**Q.** For “Carbonic anhydrase II (HCA II) Y7F (Homo sapiens; Y7F)”, which pKa is on record?
**A.** near 6.0
